Results on 4 molecules are retold here after article PMC4511217 (Genes & Development, 2015).

B1: Rpf2 within Alb1-TAP purified pre-60S particles (natural protein)
chain: MIRTVKPKNARAKRALVKREAKLVENVKQALFIPGQSCNKNLHDIMVDLSALKKPDMKRFNRKNDIHPFEDMSPLEFFSEKNDCSLMVLMTSSKKRKNNMTFIRTFGYKIYDMIELMVADNFKLLSDFKKLTFTVGLKPMFTFQGAAFDTHPVYKQIKSLFLDFFRGESTDLQDVAGLQHVISMTIQGDFQDGEPLPNVLFRVYKLKSYKSDQGGKRLPRIELVEIGPRLDFKIGRIHTPSPDMVTEAHKKPKQLEMKTKKNVELDIMGDKLGRIHMGKQDLGKLQTRKMKGLKSKFDQGTEEGDGEVDEDYEDEASYSDDGQEYEEEFVSATDIEPSAKRQKK
B4: Rpl5 (uL18) within Alb1-TAP purified pre-60S particles (natural protein)
chain: MAFQKDAKSSAYSSRFQTPFRRRREGKTDYYQRKRLVTQHKAKYNTPKYRLVVRFTNKDIICQIISSTITGDVVLAAAYSHELPRYGITHGLTNWAAAYATGLLIARRTLQKLGLDETYKGVEEVEGEYELTEAVEDGPRPFKVFLDIGLQRTTTGARVFGALKGASDGGLYVPHSENRFPGWDFETEEIDPELLRSYIFGGHVSQYMEELADDDEERFSELFKGYLADDIDADSLEDIYTSAHEAIRADPAFKPTEKKFTKEQYAAESKKYRQTKLSKEERAARVAAKIAALAGQQ

Assay [1] has as its target T1, Rsa4 ribosome assembly factor within Alb1-TAP purified pre-60S particles (yeast (endogenous in pre-60S particles), UniProt P25382 1-515).
T1 sequence: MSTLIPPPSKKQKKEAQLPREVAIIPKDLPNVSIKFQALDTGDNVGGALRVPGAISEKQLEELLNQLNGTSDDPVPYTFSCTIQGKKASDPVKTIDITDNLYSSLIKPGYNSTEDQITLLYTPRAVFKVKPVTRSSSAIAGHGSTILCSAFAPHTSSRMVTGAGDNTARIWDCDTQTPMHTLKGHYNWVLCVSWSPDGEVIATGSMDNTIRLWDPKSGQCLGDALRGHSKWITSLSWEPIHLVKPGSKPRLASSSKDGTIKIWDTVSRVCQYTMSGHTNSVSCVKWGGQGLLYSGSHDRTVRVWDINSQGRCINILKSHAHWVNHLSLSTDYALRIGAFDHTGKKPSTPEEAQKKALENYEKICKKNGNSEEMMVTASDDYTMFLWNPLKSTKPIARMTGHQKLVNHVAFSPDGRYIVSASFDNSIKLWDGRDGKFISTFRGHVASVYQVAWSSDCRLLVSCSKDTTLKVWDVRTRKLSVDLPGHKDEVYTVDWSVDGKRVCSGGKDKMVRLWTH
Kind of assay: cryo-EM structure.

In assay [2] the target is T2, Rpf2, full-length, N-terminal 6xHis-tagged (Saccharomyces cerevisiae) (Saccharomyces cerevisiae, UniProt P36160 1-344).
T2 sequence: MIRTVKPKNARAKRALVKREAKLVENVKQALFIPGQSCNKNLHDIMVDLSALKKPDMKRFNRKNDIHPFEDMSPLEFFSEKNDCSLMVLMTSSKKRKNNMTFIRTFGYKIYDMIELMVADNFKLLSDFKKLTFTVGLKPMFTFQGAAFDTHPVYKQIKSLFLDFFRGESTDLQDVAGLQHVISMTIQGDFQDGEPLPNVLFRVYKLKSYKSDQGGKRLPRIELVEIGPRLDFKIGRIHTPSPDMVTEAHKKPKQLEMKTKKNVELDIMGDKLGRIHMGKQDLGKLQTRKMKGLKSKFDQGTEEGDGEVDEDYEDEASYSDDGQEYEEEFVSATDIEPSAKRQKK
The experiment in a line: SEC + other: SAXS.

Assay [3] addresses B4. The experiment in a line: cryo-EM structure.
The target of assay [4] is B1. The experiment in a line: cryo-EM structure.

B1: in assay [1], the binding result is “binds”.

B2: Rrs1, full-length (Saccharomyces cerevisiae) (natural protein)
chain: MSAEDYKNLPVTVEKPIPVVYDLGNLAAFDSNVLDKNDLDSSNARREEKIKSLTRDNVQLLINQLLSLPMKTTTESVGGTGGQSSVMTLLQLPDPTTDLPREKPLPKAKAMTKWEKFAAKKGIKPKERAGKMIYDEASGEWVPKWGYKGANKKLDDQWLVEVDDKVKGTDNELIDPRTLNRAERKRLVKKNEKQQRRNMKNAL
For the molecule B2, in assay [2], the “stoichiometry N” value is 1.

B3: Rrs1 within Alb1-TAP purified pre-60S particles (natural protein)
chain: MSAEDYKNLPVTVEKPIPVVYDLGNLAAFDSNVLDKNDLDSSNARREEKIKSLTRDNVQLLINQLLSLPMKTTTESVGGTGGQSSVMTLLQLPDPTTDLPREKPLPKAKAMTKWEKFAAKKGIKPKERAGKMIYDEASGEWVPKWGYKGANKKLDDQWLVEVDDKVKGTDNELIDPRTLNRAERKRLVKKNEKQQRRNMKNAL
As for B3, the binding result in assay [1] and in assay [3] was “binds” throughout. Turning to B4, the binding result in assay [4] is reported as “binds”.

One may read the stoichiometry N as a count of units in the complex or per binding partner.
